In US20120148586A1 (published 2012):

B1: peptide of GAC-9 (not tethered to an antibody) (peptide)
peptide: HXEGTFTSDVSSYLEGQAAKEFIAWLVKXR
modifications: Aib at position 2 and Aib before the C-terminal R; linking residue K26 (so in the source)

Target: GLP-1R (receptor addressed by the glucose-stimulated insulin secretion assay of Table 1)
Experiment: cell-based or functional assay

| Binder | EC50 (µM), glucose-stimulated insulin secretion (GSIS) assay [µM] |
| --- | --- |
| B1 | 0.094 |
| HXEGTFTSDVSSYLEGQAAKEFIAWLVKGR (Aib at position 2; linking residue K26 (so in the source)) [peptide of GAC-4 (not tethered to an antibody)] | 0.041 |
